Results from the RNAGym collection of RNA variant scans (doi:10.7554/elife.80360).

B1: HDV Ribozyme (parent)
chain: GGCCGGCAUGGUCCCAGCCUCCUCGCUGGCGCCGGCUGGGCAACAUUCCGAGGGGACCGUCCCCUCGGUAAUGGCGAAUGGGACCCA

Variants of: B1
Test: self-cleavage, relative activity (ratio to wild type); higher = more cleavage; co-transcriptional
Work on C41G A71G yielded a self-cleavage of 0.554.
Variant C3U U60G has a self-cleavage of 0.591.
In the case of U23G G28U, the self-cleavage is reported as 0.0326.
U60A A70C gave a self-cleavage of 0.808.
U23C C66A gave a self-cleavage of 0.982.
Work on U47A G59C yielded a self-cleavage of 1.11.
Work on A45U U79G yielded a self-cleavage of 0.506.
For C48G C63G, the self-cleavage was 0.306.
G6C U27A gave a self-cleavage of 0.332.
Variant G54U U69C has a self-cleavage of 1.16.
Work on U23A U60G yielded a self-cleavage of 0.923.
Work on G6U C85A yielded a self-cleavage of 0.394.
For C21U C36G, the self-cleavage was 0.
Work on A77U A87G yielded a self-cleavage of 0.591.
C32G U79G gave a self-cleavage of 0.172.
C30A C75A showed a self-cleavage of 0.166.
In the case of G52A G54U, the self-cleavage is reported as 0.815.
Variant C33U G54U has a self-cleavage of 0.901.
G1A C7A gave a self-cleavage of 0.191.
With C18A C85U the self-cleavage was 0.158.
Work on G29C G54C yielded a self-cleavage of 0.0692.
In the case of G5C U69C, the self-cleavage is reported as 0.396.
C3G G25U showed a self-cleavage of 0.0277.
Variant A51C C61G has a self-cleavage of 0.731.
With A56G C63G the self-cleavage was 0.59.
For A8G A77C, the self-cleavage was 0.277.
Work on G28C C75G yielded a self-cleavage of 0.113.
Work on A70C G82U yielded a self-cleavage of 0.166.
With C24U G50C the self-cleavage was 0.554.
C33U G40U gave a self-cleavage of 0.78.
With A8G G81C the self-cleavage was 0.115.
C44A G52C gave a self-cleavage of 0.902.
G35A G59C gave a self-cleavage of 0.61.
For G34C C49A, the self-cleavage was 0.249.
G35U A83G showed a self-cleavage of 0.241.
With G11A C19U the self-cleavage was 0.073.
Work on U46C G81U yielded a self-cleavage of 0.302.
C24U G35C gave a self-cleavage of 0.0339.
For C24U G35U, the self-cleavage was 0.131.
G68C C75U showed a self-cleavage of 0.272.
In the case of C33U A83G, the self-cleavage is reported as 0.511.
With U9C G74U the self-cleavage was 0.467.
For U27G G73C, the self-cleavage was 0.0978.
Work on C48U A70C yielded a self-cleavage of 0.649.
U27A C85A gave a self-cleavage of 0.957.
With G53C U65C the self-cleavage was 0.772.
In the case of G10C C15A, the self-cleavage is reported as 0.237.
Work on C48A A87C yielded a self-cleavage of 1.16.
U23G C66G gave a self-cleavage of 0.32.
C4U G39U showed a self-cleavage of 0.58.
Work on G2C A45C yielded a self-cleavage of 0.0528.
With G31C A42G the self-cleavage was 0.0755.
Variant C63U A77U has a self-cleavage of 0.698.
Variant U23G U46G has a self-cleavage of 0.356.
Variant A56C C66G has a self-cleavage of 0.99.
Work on A8U G54C yielded a self-cleavage of 0.538.
For G38A G54C, the self-cleavage was 0.237.
U27C G35A gave a self-cleavage of 0.389.
Work on A16G G55A yielded a self-cleavage of 0.943.
U9C U23C showed a self-cleavage of 1.06.
Work on G11A A45C yielded a self-cleavage of 0.155.
Work on G35C C58G yielded a self-cleavage of 0.161.
For C62G, the self-cleavage was 0.695.
For C64A C84U, the self-cleavage was 0.694.
U60G U65A gave a self-cleavage of 0.95.
C44G G80U gave a self-cleavage of 0.0966.
For C15U A71U, the self-cleavage was 0.598.
In the case of C32A C84A, the self-cleavage is reported as 0.
In the case of U27C C75G, the self-cleavage is reported as 0.
In the case of C22G C49G, the self-cleavage is reported as 0.0277.
With U20G C33U the self-cleavage was 0.0852.
G11U C19A showed a self-cleavage of 0.0382.
U23A G81C gave a self-cleavage of 0.306.
U12G G67A gave a self-cleavage of 0.923.
Work on C18A G54C yielded a self-cleavage of 0.189.
G6C C58U showed a self-cleavage of 0.394.
U9G G52C gave a self-cleavage of 0.95.
G59C gave a self-cleavage of 1.01.
In the case of C26U U27G, the self-cleavage is reported as 0.923.
With G50C A87C the self-cleavage was 0.95.
With C3U C63A the self-cleavage was 0.909.
In the case of C57G A78C, the self-cleavage is reported as 0.0959.
C32A U46G showed a self-cleavage of 0.138.
In the case of G59A C85U, the self-cleavage is reported as 0.796.
For A56G C84G, the self-cleavage was 0.598.
G6C U12A gave a self-cleavage of 0.
In the case of U60C G73U, the self-cleavage is reported as 0.352.
G73C G76C showed a self-cleavage of 0.501.
In the case of G59C G73U, the self-cleavage is reported as 0.379.
For A42C C75G, the self-cleavage was 0.0852.
G6C U65A showed a self-cleavage of 0.104.
Work on C18U G59U yielded a self-cleavage of 0.67.
G39A C86A showed a self-cleavage of 0.53.
U12C G67C gave a self-cleavage of 0.256.
C22G G39U gave a self-cleavage of 0.102.
Variant C48U U72C has a self-cleavage of 0.554.
For C30A G50C, the self-cleavage was 0.577.
Variant G50C G82A has a self-cleavage of 0.364.
C62G A77U gave a self-cleavage of 0.388.
Work on U12G G80A yielded a self-cleavage of 0.906.
Variant U27A G40C has a self-cleavage of 0.151.
Work on G28U C57G yielded a self-cleavage of 0.0773.
G29A G52U gave a self-cleavage of 0.153.
With A43G G76A the self-cleavage was 0.391.
G25C A45G gave a self-cleavage of 0.104.
Work on C19U G73U yielded a self-cleavage of 0.12.
With G1A G11C the self-cleavage was 0.172.
For G74A G76A, the self-cleavage was 0.443.
With C49G C64U the self-cleavage was 0.973.
Variant C15U C18A has a self-cleavage of 0.0639.
Work on G55A C61A yielded a self-cleavage of 0.956.
Work on G74A U79C yielded a self-cleavage of 0.118.
In the case of A16G G81A, the self-cleavage is reported as 0.604.
Variant G17C A43C has a self-cleavage of 0.119.
Work on C7A C18A yielded a self-cleavage of 0.0852.
C21A C58G showed a self-cleavage of 0.128.
U20A G81C showed a self-cleavage of 0.0449.
Variant C33U C66U has a self-cleavage of 0.774.
In the case of A43C G53U, the self-cleavage is reported as 0.425.
In the case of G5A C63U, the self-cleavage is reported as 0.155.
With G25C A71G the self-cleavage was 0.131.
C18G C84G showed a self-cleavage of 0.237.
Work on C61A C85A yielded a self-cleavage of 1.09.
With G29A C41U the self-cleavage was 0.25.
Variant G6A G11A has a self-cleavage of 0.128.
G6C A77C showed a self-cleavage of 0.277.
C18U G54U gave a self-cleavage of 0.661.
Work on G39C G76A yielded a self-cleavage of 0.289.
Variant A71U C75A has a self-cleavage of 0.0739.
For C36G G73C, the self-cleavage was 0.185.
Work on A8U G68A yielded a self-cleavage of 0.511.
In the case of C41U U60A, the self-cleavage is reported as 0.815.
U37C U46A gave a self-cleavage of 0.458.
Work on G11U G82U yielded a self-cleavage of 0.138.
Variant A51C A70U has a self-cleavage of 1.15.
G59U G76C showed a self-cleavage of 1.08.
For A16U U46A, the self-cleavage was 0.489.
For C21U G80A, the self-cleavage was 0.185.
For G2A C19A, the self-cleavage was 0.0292.
G17U G68A showed a self-cleavage of 0.478.
C7U G59A showed a self-cleavage of 0.8.
Variant G38U G67U has a self-cleavage of 0.166.
Variant C49U G52U has a self-cleavage of 0.687.
In the case of C14G G53U, the self-cleavage is reported as 0.802.
For G11A A87U, the self-cleavage was 0.495.
With A16G C58U the self-cleavage was 0.962.
G10A C14A showed a self-cleavage of 0.205.
Variant C36G C62U has a self-cleavage of 0.246.
With A45C A83C the self-cleavage was 0.0615.
Variant U9C C66U has a self-cleavage of 0.919.
G2U G28C showed a self-cleavage of 0.0234.
For G52C C63U, the self-cleavage was 0.919.
G6C G52C showed a self-cleavage of 0.237.
With U23A A42U the self-cleavage was 0.57.
Work on C18A U23G yielded a self-cleavage of 0.155.
With C4A G81U the self-cleavage was 0.128.
In the case of C19A U20G, the self-cleavage is reported as 0.217.
For C36A U79C, the self-cleavage was 0.086.
Variant C61U C85U has a self-cleavage of 0.917.
Work on C7G C14G yielded a self-cleavage of 0.
In the case of C22G C85G, the self-cleavage is reported as 0.0396.
Work on C22U C58U yielded a self-cleavage of 0.684.
In the case of G55A A71C, the self-cleavage is reported as 0.978.
In the case of G10U A70U, the self-cleavage is reported as 0.602.
Work on A56U U72G yielded a self-cleavage of 0.734.
Work on U12G U27G yielded a self-cleavage of 0.639.
Variant A56C C63G has a self-cleavage of 0.608.
